Reference: patent US20260327578A1, “TRANSGLUTAMINASES AND USES THEREOF” (CURIE CO. INC., priority 2023, published 2026)

Tested on: N,N-dimethylcasein
Assay: Productivity: total product formed after 24 hours (protein functionalization assay)
Format: biochemical
Settings: improvement relative to wild-type Tgase (SEQ ID NO: 2); total product after 24 h
Procedure: Enzymatic “productivity” is a measure of product formation or substrate disappearance over time, at a prescribed temperature under specified reaction conditions. It is the measure both the durability and reaction yield of the enzyme variant. In this instance, productivity is defined as total product formed over 24-hours at a constant substrate concentration when the enzyme is the rate limiting factor. The time is defined as 24 hours, which represents approaching or surpassing burnout, denaturation, or self-reaction of the enzyme variant. In other words, variants with higher productivity deliver a higher product yield in 24-hours than variants with lower productivity produce in the same period of time. “Rate” refers to the initial rate for an enzymatic reaction, at a prescribed temperature under specified reaction conditions. The enzyme produces product at an initial rate that is approximately linear for a short period after the start of the reaction. When concentrations of enzyme and substrate are the same across the sample set, initial rates between enzyme variants can be compared. In this instance, the linear range for production of product occurs in one hour. Enzyme variants with faster initial rates deliver a higher product yield in one hour than variants with slower initial rates produce at the same time-period. In some cases, improvements to initial rates also deliver a more productive variant. In some cases, improvements to initial rates result in faster decay of the enzyme variant reducing overall enzymatic productivity. Productivity and rate may be assessed as described in Example 2.
Table 6 depicts variants of Streptomyces mobaraensis Tgase and improvement to productivity and/or rate relative to wild-type Tgase (SEQ ID NO. 2) as determined in Example 3. Numbering of amino acid positions is in reference to the mature S. mobaraensis Tgase sequence depicted in SEQ ID NO. 2. A “−” indicates a reduction in activity. A “+” indicates an improvement between 1.2 and 2-fold. A “++” indicates an improvement between 2 and 5-fold. A “+++” indicates an improvement greater than 5-fold.
To evaluate productivity, total product formed was measured after 24-hours of incubation, using the assay described in Example 4B. The time is defined as 24 hours which represents approaching or surpassing burnout, denaturation, or self-reaction of the enzyme variant.
Protein functionalization by Tgase variants was determined by the fluorogenic labeling of casein using monodansylcadaverine (e.g., a commercially available kit such as the Transglutaminase Fluorogenic Activity Assay Kit, T036, Zedira, Germany). Tgase activity was monitored by measuring fluorescence (excitation wavelength 332 nm; emission wavelength 500 nm) using a BioTek Synergy H1 microplate reader. Transglutaminase-catalyzed covalent coupling (crosslinking) of monodansylcadaverine with N,N-dimethylcasein produces a product that causes a shift in intensity and wavelength of fluorescence of the dansyl group now linked to the casein. The relative transglutaminase activity is shown by increase of fluorescence intensity over time. Enzyme variant loading was optimized based on expression levels, ensuring enzyme was the rate limiting factor. Briefly, cell-free reactions (set up as described in Example 2A) were first diluted 10-fold using phosphate buffer, pH 7.4, and a 5 microliter aliquot was analyzed.

B1: A3: Tgase variant S2P Q50S Q74A K91H Q124L K151R K152R N282M G283A relative to SEQ ID NO: 2 (protein, UniProt P81453 77-407, looked up, variant S2P Q50S Q74A K91H Q124L K151R K152R N282M G283A)
Protein-glutamine …: DPDDRVTPPAEPLDRMPDPYRPSYGRAETVVNNYIRKWQQVYSHRDGRKSQMTEEQREWLSYGCVGVTWVNSGAYPTNRLAFASFDEDRFHNELKNGRPRSGETRAEFEGRVAKESFDEEKGFLRAREVASVMNRALENAHDESAYLDNLRRELANGNDALRNEDARSPFYSALRNTPSFKERNGGNHDPSRMKAVIYSKHFWSGQDRSSSADKRKYGDPDAFRPAPGTGLVDMSRDRNIPRSPTSPGEGFVNFDYGWFGAQTEADADKTVWTHGNHYHAPMASLGAMHVYESKFRNWSEGYSDFDRGAYVITFIPKSWNTAPDKVKQGWP
- Productivity: + (an improvement between 1.2 and 2-fold)
